Target: porcine pancreatic elastase (porcine) (UniProt P00772)
UniProt P00772, sequence (P00772 27-266): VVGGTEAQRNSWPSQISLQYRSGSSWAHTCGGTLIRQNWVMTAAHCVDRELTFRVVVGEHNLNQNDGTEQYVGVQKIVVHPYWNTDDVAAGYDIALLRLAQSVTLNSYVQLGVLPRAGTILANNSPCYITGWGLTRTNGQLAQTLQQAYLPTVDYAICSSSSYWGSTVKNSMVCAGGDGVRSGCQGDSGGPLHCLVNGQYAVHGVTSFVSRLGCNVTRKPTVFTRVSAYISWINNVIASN

Alpha-1-antitrypsin (standard AAT, purified from human plasma) (from UniProt P01009 25-418) (natural protein)
elastase inhibition % (hydrolysis of N-succinyl-tri-l-alanine-4-nitroanilide read at 410 nm), AAT from 7.5 to 120 µg/mL: 97%
